Data from IntAct's records for PubMed 17567753.

B1: Lysine-specific demethylase 4A (Homo sapiens), O75164 (parent)
chain: MASESETLNPSARIMTFYPTMEEFRNFSRYIAYIESQGAHRAGLAKVVPPKEWKPRASYDDIDDLVIPAPIQQLVTGQSGLFTQYNIQKKAMTVREFRKIANSDKYCTPRYSEFEELERKYWKNLTFNPPIYGADVNGTLYEKHVDEWNIGRLRTILDLVEKESGITIEGVNTPYLYFGMWKTSFAWHTEDMDLYSINYLHFGEPKSWYSVPPEHGKRLERLAKGFFPGSAQSCEAFLRHKMTLISPLMLKKYGIPFDKVTQEAGEFMITFPYGYHAGFNHGFNCAESTNFATRRWIEYGKQAVLCSCRKDMVKISMDVFVRKFQPERYKLWKAGKDNTVIDHTLPTPEAAEFLKESELPPRAGNEEECPEEDMEGVEDGEEGDLKTSLAKHRIGTKRHRVCLEIPQEVSQSELFPKEDLSSEQYEMTECPAALAPVRPTHSSVRQVEDGLTFPDYSDSTEVKFEELKNVKLEEEDEEEEQAAAALDLSVNPASVGGRLVFSGSKKKSSSSLGSGSSRDSISSDSETSEPLSCRAQGQTGVLTVHSYAKGDGRVTVGEPCTRKKGSAARSFSERELAEVADEYMFSLEENKKSKGRRQPLSKLPRHHPLVLQECVSDDETSEQLTPEEEAEETEAWAKPLSQLWQNRPPNFEAEKEFNETMAQQAPHCAVCMIFQTYHQVEFGGFNQNCGNASDLAPQKQRTKPLIPEMCFTSTGCSTDINLSTPYLEEDGTSILVSCKKCSVRVHASCYGVPPAKASEDWMCSRCSANALEEDCCLCSLRGGALQRANDDRWVHVSCAVAILEARFVNIAERSPVDVSKIPLPRFKLKCIFCKKRRKRTAGCCVQCSHGRCPTAFHVSCAQAAGVMMQPDDWPFVVFITCFRHKIPNLERAKGALQSITAGQKVISKHKNGRFYQCEVVRLTTETFYEVNFDDGSFSDNLYPEDIVSQDCLQFGPPAEGEVVQVRWTDGQVYGAKFVASHPIQMYQVEFEDGSQLVVKRDDVYTLDEELPKRVKSRLSVASDMRFNEIFTEKEVKQEKKRQRVINSRYREDYIEPALYRAIME

Variants of: B1
Conditions: with h31t_human H3-4, Q16695
In the case of Y177L, the “effect of a mutation on the interaction” value is reported as “disrupting interaction”.
In the case of Y177F, the “effect of a mutation on the interaction” value is reported as “decreasing interaction”.
In the case of N86A, the “effect of a mutation on the interaction” value is reported as “decreasing interaction”.
Q88A was tested, and the “effect of a mutation on the interaction” value was “decreasing interaction”.
For N290I, the “effect of a mutation on the interaction” value was “disrupting interaction”.
In the case of N290V, the “effect of a mutation on the interaction” value is reported as “disrupting interaction”.
In the case of N290D, the “effect of a mutation on the interaction” value is reported as “disrupting interaction”.
With N290A the “effect of a mutation on the interaction” value was “disrupting interaction”.
K241A was tested, and the “effect of a mutation on the interaction” value was “disrupting interaction”.
For K241L, the “effect of a mutation on the interaction” value was “disrupting interaction”.
With D135A the “effect of a mutation on the interaction” value was “decreasing interaction”.
With Y175F the “effect of a mutation on the interaction” value was “decreasing interaction”.

Variants of: B1
Conditions: with h31t_human H3-4, Q16695
Remark: another data set of the same source
With G133A;G138A the “effect of a mutation on the interaction” value was “disrupting interaction strength”.
With G165A;G170A the “effect of a mutation on the interaction” value was “disrupting interaction strength”.
